Like-named read-outs stand apart in the source and are kept apart here.
T1: GLP2R (Homo sapiens, UniProt O95838)
T1 sequence (O95838 1-553): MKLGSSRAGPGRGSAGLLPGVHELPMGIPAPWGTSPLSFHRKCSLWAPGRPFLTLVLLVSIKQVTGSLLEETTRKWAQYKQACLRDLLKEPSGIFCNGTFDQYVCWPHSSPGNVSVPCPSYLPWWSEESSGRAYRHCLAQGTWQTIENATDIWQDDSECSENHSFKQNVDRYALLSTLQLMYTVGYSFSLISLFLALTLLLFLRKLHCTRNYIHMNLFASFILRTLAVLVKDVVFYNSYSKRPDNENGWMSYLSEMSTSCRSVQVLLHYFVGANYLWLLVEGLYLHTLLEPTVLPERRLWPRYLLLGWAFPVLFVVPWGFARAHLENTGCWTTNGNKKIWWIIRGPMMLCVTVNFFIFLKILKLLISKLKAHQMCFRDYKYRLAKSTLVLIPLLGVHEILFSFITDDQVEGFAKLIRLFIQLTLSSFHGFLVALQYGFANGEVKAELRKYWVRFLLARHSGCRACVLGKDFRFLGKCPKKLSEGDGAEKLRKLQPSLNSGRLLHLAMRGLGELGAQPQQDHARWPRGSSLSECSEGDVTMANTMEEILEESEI

T2: mouse GLP1R (Mus musculus, UniProt O35659)
T2 sequence (O35659 22-463): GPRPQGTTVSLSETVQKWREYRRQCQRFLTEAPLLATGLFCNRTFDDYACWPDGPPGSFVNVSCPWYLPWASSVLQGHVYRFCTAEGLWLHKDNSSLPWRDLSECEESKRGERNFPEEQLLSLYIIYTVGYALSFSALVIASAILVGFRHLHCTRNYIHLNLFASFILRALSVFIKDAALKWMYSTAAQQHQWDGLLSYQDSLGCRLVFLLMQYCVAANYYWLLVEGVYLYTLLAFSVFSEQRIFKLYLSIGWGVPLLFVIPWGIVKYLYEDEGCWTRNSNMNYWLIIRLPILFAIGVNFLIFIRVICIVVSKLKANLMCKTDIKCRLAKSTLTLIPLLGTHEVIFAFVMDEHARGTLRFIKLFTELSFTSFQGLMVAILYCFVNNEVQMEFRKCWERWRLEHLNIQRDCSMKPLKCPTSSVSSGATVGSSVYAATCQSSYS


What was measured:
GLP1R [1] = biological target: T3, GLP1R (Homo sapiens, UniProt P43220); test: VHH-Fc FACS binding on CHO-GLP1R cells; settings: Sample E10.fcs/CHO-GLP1R
Method: A VHH library for GLP1R was developed similar to methods described in Example 14. Briefly, stable cell lines expressing GLP1R were generated, and target expression was confirmed by FACS. Cells expressing >80% of the target were then used for cell-based selections. Five rounds of cell-based selections were carried out against cells stably overexpressing the target of interest. 10^8 cells were used for each round of selection. Before selection on target expressing cells, phage from each round was first depleted on 10^8 CHO background cells. Stringency of selections was increased by increasing the number of washes in subsequent rounds of selections. The […] using trypsin, and the phage was amplified for the next round of panning. A total of 1000 clones from round 4 and round 5 are sequenced by NGS to identify unique clones for reformatting as VHH-Fc.
The data for variant GLP1R-43-77 is seen in FIGS. 22A-22B and Tables 23B-24.

CHO-parent = test: VHH-Fc FACS binding on CHO-parent cells; settings: Sample E10.fcs/CHO-parent
GLP1R [2] = biological target: T3, GLP1R; test: cAMP assay, allosteric effects on GLP1-7-36 peptide induced cAMP activity (Example 10); assay type: cell-based; settings: FIGS. 10B-10J
Method: Cell binding was determined for the GLP1R variants. […] GLP1R-3, GLP1R-8, GLP1R-26, GLP1R-56, GLP1R-58 and GLP1R-10 were then analyzed for allosteric effects on GLP1-7-36 peptide in a cAMP assay. FIGS. […] show graphs of the GLP1R variants on inhibition of GLP1-7-36 peptide induced cAMP activity.

GLP1R [3] = biological target: T3, GLP1R; test: cAMP assay, allosteric/antagonist effects on Exendin-4 peptide induced cAMP activity (Example 10); assay type: cell-based
[4] = Thermal ramp stability (Tm and Tagg), UNcle platform; assay type: physicochemical
Description: The GLP1R IgGs were characterized for thermal ramp stability (Tm and Tagg). The UNcle platform was used to characterize the IgGs and the data is seen in Table 21.

GLP2R = biological target: T1, GLP2R; test: Specificity of GLP1R versus GLP2R binding; settings: data not shown
mouse GLP1R = biological target: T2, mouse GLP1R; test: Binding on mouse GLP1R; settings: IgG at 100 nM (GLP1R-59-243 at 50 nM); data not shown
Method: (§1) Binding of GLP1R-3, GLP1R-59-242, and GLPTR-43-8 on mouse, macaca, and human GLP1R was determined. […] Binding of GLP1R-59-2, GLP1R-59-241, and GLPTR-59-243 on mouse, macaca, and human GLP1R was determined.

macaca GLP1R = test: Binding on macaca GLP1R; settings: IgG at 100 nM (GLP1R-59-243 at 50 nM); data not shown
Method: as §1

GLP1R [5] = biological target: T3, GLP1R; test: Binding on human GLP1R; settings: IgG at 100 nM (GLP1R-59-243 at 50 nM); data not shown
Method: as §1

[6] = test system: human pancreatic precursor cells expressing endogenous GLP1R; test: Binding to human pancreatic precursor cells expressing endogenous GLP1R
Method: as §1

C57BL/6J DIO mice = test: Oral glucose tolerance test in mouse model of diet induced obesity; assay type: in vivo; settings: HFD, 10 mg/kg SC, 2 g/kg oral glucose 60 minutes later, FIGS. 24C-24D
Method: The objective of this study was to evaluate the acute effects of a chimeric antibody GLP1R agonist and antagonist on glycemic control in a mouse model of diet induced obesity in C57BL/6J DIO mice. The test articles are seen below in Table 25.
For each test article, 7 different test article groups were generated as summarized in the following Table 26 with 8 animals per group.
On Day 3 (all animals) and Day 1 (Group 1-7), a non-fasting blood glucose was determined by tail snip. Approximately 5-10 μL of blood was collected. The second drop of blood from the animal was placed on a blood glucose test strip and analyzed using a hand-held glucometer (Abbott Alpha Trak).
After a non-fasting blood glucose measurement was made on the day of the procedure, the animals were weighed, tails marked, and the animals placed in clean cages without food. The animals were fasted for 4 hours and a fasting blood glucose measurement was determined.
The oral glucose tolerance test (OGTT) was administered to each animal 60 minutes later. The animals were dosed via oral gavage with 2 g/kg glucose (10 mL/kg). Blood glucose was determined via tail snip with the second drop of blood from the animal placed on a hand-held glucometer (Abbott Alpha Trak) at the following times relative to the glucose dose: 0 (just prior to glucose dose), 15, 30, 60, 90, and 120 minutes. […]

C57BL/6NHsd Mice = test: Glucose Tolerance Test (GTT) in wild-type mice; assay type: in vivo, mouse; settings: control mice exhibited a decrease; FIG. 25D
Method: 15 C57BL/6NHsd Mice were used and subjected to a Glucose Tolerance Test (GTT). The in vivo GTT test was performed on three groups of mice with 5 mice per group. […] Blood glucose measurements were recorded for each mouse at 15, 30, 60, 120, and 180 minutes after dextrose injection. […] A third group of mice were the control mice and were not treated. Data is seen for GLP1R-59-2 (agonist), GLP1R-3 (antagonist), and control in FIGS. 25A-25D.

GLP1R [7] = biological target: T3, GLP1R
Method: All GLP1R scFv clones, as well as pGPCR-GLP1R-43 and pGPCR-GLP1R-44, were assayed for their potential effects on GLP1R signaling by performing cAMP assays (Eurofins DiscoverX Corporation). These assays involve CHO cells that were engineered to overexpress naturally Gαs-coupled wildtype GLP1R and were designed to detect changes in intracellular cAMP levels in response to agonist stimulation of the receptor. The technology involved in detecting cAMP levels was a no wash gain-of-signal competitive immunoassay based on Enzyme Fragment Complementation technology and produced a luminescent signal that was directly proportional to the amount of cAMP in the cells. Experiments were designed to determine agonist or allosteric activity of the IgGs.

T3 sequence (P43220 24-463): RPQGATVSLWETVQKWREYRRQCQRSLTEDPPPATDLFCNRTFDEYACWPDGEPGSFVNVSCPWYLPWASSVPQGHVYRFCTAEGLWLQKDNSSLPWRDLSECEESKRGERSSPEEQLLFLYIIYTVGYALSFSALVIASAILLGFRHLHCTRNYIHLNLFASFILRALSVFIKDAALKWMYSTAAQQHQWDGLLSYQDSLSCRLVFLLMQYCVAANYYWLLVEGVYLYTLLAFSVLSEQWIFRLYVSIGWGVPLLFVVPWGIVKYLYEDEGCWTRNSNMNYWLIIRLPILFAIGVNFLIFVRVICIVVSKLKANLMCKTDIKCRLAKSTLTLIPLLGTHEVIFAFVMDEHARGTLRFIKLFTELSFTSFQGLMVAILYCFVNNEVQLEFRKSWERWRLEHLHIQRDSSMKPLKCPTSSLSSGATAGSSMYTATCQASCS

Median: RL1-A (GLP1R [1]) | allosteric inhibition of GLP1-7-36 peptide induced cAMP activity (GLP1R [2]) | EC50 (GLP1R [3]; EC50 of Exendin-4 induced cAMP in the presence of the GLP1R variant) | fold-diff (GLP1R [3]; fold difference of Exendin-4 EC50 with variant versus Exendin-4 alone) | specificity of GLP1R versus GLP2R binding (GLP2R) | binding on mouse GLP1R (mouse GLP1R) | binding on macaca GLP1R (macaca GLP1R) | binding on human GLP1R (GLP1R [5]) | EC50 (GLP1R [7]; EC50 of GLP1 (7-36) cAMP response with GLP1R IgG (+100 nM)) | fold difference of EC50 (GLP1R [7]; EC50 with 100 nM IgG versus no antibody (Table 23)) | inhibition of GLP1:GLP1R signaling (GLP1R [7]; GLP1 (7-36) titration versus no antibody, FIG. 24A) | inhibition at higher concentrations (GLP1R [7]; following stimulation with 0.05 nM GLP1 (7-36), FIG. 24B) | Molecule | Median: RL1-A (CHO-parent) | Average Tagg 266 [4] | Average Tm2 [4] | Average Tml [4] | binding to human pancreatic precursor cells expressing endogenous GLP1R [6] | glucose levels after glucose administration (OGTT) (C57BL/6J DIO mice) | change of glucose in a 6 hour fast, pre-dosed animals (C57BL/6NHsd Mice)
23439 | – | – | – | – | – | – | – | – | – | – | – | GLP1R-43-77: GLP1R VHH Fc binder variant from the VHH library for GLP1R (protein, Fc) VHH: EVQLVESGGGLVQAGGSLRLSCAASGNTYSYKVMGWFRQAPGKEREFVGIIIRNGDTTYYADSVKGRFTISADNAKNTVYLQMNSLKPEDTAVYYCAASPKYMTAYERSYDWGQGTQVTVSS | 237 | – | – | – | – | – | –
– | allosteric inhibition | 630 pM | 5.4 | specific for GLP1R over GLP2R | found to bind | found to bind | found to bind | 1310 pM | 2.2 fold | inhibits GLP1:GLP1R signaling | complete inhibition | GLP1R-3: GLP1R antagonist IgG, CDR-H3 SEQ ID NO 2279, heavy chain SEQ ID NO 2320 (antibody) heavy: QVQLVESGGGVVQPGRSLRLSCAASGFTFSSYGMHWVRQAPGKGLEWVSFISYDESNKYYADSVKGRFTISRDNSKNTLYLQMNSLRAEDTAVYYCAKHMSMQEGAVTGEGQAAKEFIAWLVKGRVRADLVGDAFDVWGQGTLVTVSSASTKGPSVFPLAPCSRSTSESTAALGCLVKDYFPEPVTVSWNSGALTSGVHTFPAVLQSSGLYSLSSVVTVPSSNFGTQTYTCNVDHKPSNTKVDKTVERKCCVECPPCPAPPVAGPSVFLFPPKPKDTLMISRTPEVTCVVVDVSHEDPEVQFNWYVDGVEVHNAKTKPREEQFNSTFRVVSVLTVVHQDWLNGKEYKCKVSNKGLPAPIEKTISKTKGQPREPQVYTLPPSREEMTKNQVSLTCLVKGFYPSDIAVEWESNGQPENNYKTTPPMLDSDGSFFLYSKLTVDKSRWQQGNVFSCSVMHEALHNHYTQKSLSLSPGK light: QSVLTQPPSVSAAPGQKVTISCSGSSSNIADNYVSWYQQLPGTAPKLLIYDNNKRPSGIPDRFSGSKSGTSATLGITGLQTGDEADYYCGTWDNYLGAGVFGGGTKLTVLGQPKAAPSVTLFPPSSEELQANKATLVCLISDFYPGAVTVAWKADSSPVKAGVETTTPSKQSNNKYAASSYLSLTPEQWKSHRSYSCQVTHEGSTVEKTVAPTECS | – | 68.4 °C | 73.5 °C | 66.7 °C | found to bound | sustained high glucose levels | did not show decreased glucose

Source: patent US20250270737A1, “Antibodies That Bind GLP1R” (Twist Bioscience Corporation, priority 2019, published 2025)
